Results from the nanobody polyreactivity screen of Harvey et al. (2022).

Test: yeast display, Sf9 membrane polyspecificity reagent, FACS + sequencing; frameworks hold sequencing errors
In short: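 Sorting gates, low and high (top ~1%), were placed on anti-HA fluorescence to track expression and on streptavidin fluorescence to track reagent binding. A clone's polyreactivity label is taken from the gate it came out of. The reagent was 10% biotinylated, detergent-solubilized Sf9 membrane, applied for 1 hour at 4 °C to galactose-induced yeast display cells.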

Sequence	polyreactivity (PSR sort gate)
QVQLVESGGGLVQAGGSLRLSCAASGYIFPRYAMGWYRQAPGKERELVAAITGSGGSTYYADSVKGRFTISRDNAKNTVYLQMNSLKPEDTAVYYCNTVYYRSGSQRLDYWGQGTQVTVSS	high polyreactivity
QVQLVESGGGLVQAGGSLRLSCAASGYIFPYNAMGWYRQAPGKERELVATITWTGGSKYYADSVKGRFTISRDNAKNTVYLQMNSLKPEDTAVYDCADDLSIRYDHEYGYWGQGTQVTVSS	low polyreactivity
QVQLVESGGGLVQAGGSLRLSCAASGYIFRGYVMGWYRQAPGTERELVAGISRSGSSTYYADSVKGRFTISRDNAKNNVYLQMNSLKPEDTAVYYCAAVRSGIEYGYWGQGTQVTVSS	high polyreactivity
QVQLVESGGGLVQAGGSLRLSCAASGYIFRHYAMVWYRQAPGKERELVAAISSSGGRTNYADSLKGRFTISRDNAKITVYLQMNSLKPEDTAVYYCNAGRYQYLGGYGYWGQGTQVTVSS	low polyreactivity
QVQLVESGGGLVQAGGSLRLSCAASGYIFRIYAMGWYRQAPGKERELVATITNGGSTHYADSVKGRFTISRDNAKNTVYLQMNSLKPEDTAVYYCAADLLYSEYDYWGQGTQVTVSS	high polyreactivity
QVQLVESGGGLVQAGGSLRLSCAASGYIFRQNAMGWYRQAPGKERELVAAISRSDDNTFYADSVKGRFTISRDNAKNTVYLLMNSLKPEDTAVYYCAKYAVPWRYPRGYDYWGQGTQVTVSS	low polyreactivity
QVQLVESGGGLVQAGGSLRLSCAASGYIFRWYAMGWYRQAPGKERELVAAISGRGGRTYYADSVKGRFTISRDNAKNTVYLQMNSLKPEDTAVYYCAAVPVVQSQPTYYYWGQGTQVTVSS	high polyreactivity
QVQLVESGGGLVQAGGSLRLSCAASGYIFSGYAMGWYRQAPGKERELVAAISSNGGSTYYADSVKGRFTISRDNAKNTVNLQMNSLKPEDTAVYYCNRGLAARVGRGDYWGQGTQVTVSS	low polyreactivity
QVQLVESGGGLVQAGGSLRLSCAASGYIFSLYAMGWYRQAPGKERELVADITTSAGSTYYADSVKGRFTISRDNAKNTVYLQMNSLKPEDTAVYYCAADVYGHTYYDYDYWGQGTQVTVSS	low polyreactivity
QVQLVESGGGLVQAGGSLRLSCAASGYIFTEYAMGWYRQAPGKERELVAAIDWSGGSTYYADSVKGRFTISRDNAKNTVYLQMNSLKPEDTAVYYCAKYYYTSIVGYDSWGQGTQVTVSS	low polyreactivity
QVQLVESGGGLVQAGGSLRLSCAASGYIFTRNAMGWYRQAAGKERELVATISSRGGRTYYADSVKGRFTISRDNAKNTVYLQMNSLKPEDTAVYYCAATPWYRTRTYDYWGQGSQVTVSS	high polyreactivity
QVQLVESGGGLVQAGGSLRLSCAASGYIFTYNAMGWYRQAPGKERELVAAISSGGSTNYADSVKGRFTISRDNAKNTVYLQMNSLKPEDTAVYYCAAPVWTYDDYFSYSYSYGYWGQGTQVTVSS	low polyreactivity
QVQLVESGGGLVQAGGSLRLSCAASGYIFVHYAMGWYRQEPGKERELVAAISKSGSSTYYADSVKGRFTISRDNAKNTVYLQMHSLKPEDTAVYYCAGVYPYVSGYTYGYWGQGTQVTVSS	low polyreactivity
QVQLVESGGGLVQAGGSLRLSCAASGYIFVKNAMGWYRQAPGTERELVAAISTRGGRTYYADSVKGRFTISRDNAKNTVYLQMNSLKPEDTAVYYCAAVHQTSYYDANSYGYWGQGTQVTVSS	high polyreactivity
QVQLVESGGGLVQAGGSLRLSCAASGYIFVTNAMGWYRQAPGKERELVAAISYRGGSTSYADSVKGRFTISRDNAKNTVYLQMNSLKPEDTAVYYCNAVTFPLGYLRFYYWGQGTQVTVSS	low polyreactivity
QVQLVESGGGLVQAGGSLRLSCAASGYIFVTNAMGWYRQAPGKERELVAAISYRGGSTSYADSVKGRFTISRDNAMNTVYLQMNSLKPEDTAVYYCNAVTFPLGYLRFYYWGQGTQVTVSS	low polyreactivity
QVQLVESGGGLVQAGGSLRLSCAASGYIFWENAMGWYRPAPGKERELVAAITVSGGGTYYADSVKGRFTISRDNAKNTVYLQRNSLKPEDTAVYYCAADEDNPWLWFYYWGQGTQVTVSS	low polyreactivity
QVQLVESGGGLVQAGGSLRLSCAASGYIFWENAMGWYRQAPGKERELVAAITVSGGGTYYADSVKGRFTISRDNAKNTVYLQMNSLEPEDTAVYSCAADEDNPWLWFYYCGQGTQVTVSS	low polyreactivity
QVQLVESGGGLVQAGGSLRLSCAASGYIFYDNAMGWYRQAPVKERELVAAISASGGDTYYADSVKGRFTISRDNAKNTVYLQMNSLKPDDTAVYYCAADLITYAMEYWGQGTQVTVSS	low polyreactivity
QVQLVESGGGLVQAGGSLRLSCAASGYIFYFYAMGWYRQAPGKERELVAAISSSGGSTRYADSVKGRFTISRDNAKNTVYLQMNSLKPEDTAVYYCAASHWSGAAWYYYWGQGTQVSVSS	high polyreactivity
QVQLVESGGGLVQAGGSLRLSCAASGYIFYNAMGWYRQAPGKERELVASISRRSGSTYYADSVKGRFTISRDNAKNTVYLQMNSLKPEDTAVYYCAADRPPWETYGYDYWGQGTQVTVSS	low polyreactivity

Sequence	polyreactivity (PSR sort gate)
QVQLVESGGGLVQAGGSLRLSCAASGYIISYNTMGWYRPAPGKERELVASIRWGGGRTYYADSVKGRFTISRDNAKNTVYLQLNSLKPEDTAVYYCNVKSSRFLDVGRMEYWGQGTQVTVSS	high polyreactivity
QVQLVESGGGLVQAGGSLRLSCAASGYILDVYAMGWYRQAHGKERELVAVITWRTDSTYYADSVKGRFTISRDNAKNTVYLQMNSLKPEDTAVYYCAKVLRLSKYRYYYWGQGTQVTVSS	high polyreactivity
QVQLVESGGGLVQAGGSLRLSCAASGYILGKNVMGWYRPAPGKERELVAAISSGGRTYYADSVKGRFTISRDNAKNTVYLQMNSLKPEDTAVYYCAPDLKYYGYDYWGQGTQVTVSS	high polyreactivity
QVQLVESGGGLVQAGGSLRLSCAASGYILQKYAMGWYRQAPGKERELVATISGGGGSTYYADSVKGRFTISRDNAKNTVYLLMNSLKPEDTAVYYCAKEYPWLPRSYEYWGQGTQVSVSS	low polyreactivity
QVQLVESGGGLVQAGGSLRLSCAASGYILRNAMGWYRQAPGKERELVAAIRFRGGSTSYADSVKGRFTISRYNAKNTVYLQMKSLKPEDTAVYYCNALWWVIRPYQRHDYWGQVTQVTVSS	low polyreactivity
QVQLVESGGGLVQAGGSLRLSCAASGYILRRNAMGWYRQAPGKERELVARINSSGGSTYYADSVKGRFTISRDNAKNTVYLQMNSLKPEDTAVYYCAKSYYRGRDYWGQGTQVTVSS	high polyreactivity
QVQLVESGGGLVQAGGSLRLSCAASGYILYANTMGWYRQAPGKERELVAAISGGGSTNYADSVKGRFTISRDNAKNTVYLQMNSLKPEDTAVYYCAVKTNQAGYDYWGQGTQVTVSS	low polyreactivity
QVQLVESGGGLVQAGGSLRLSCAASGYISNANAMGCYRQAPGKERELVAAITWSGGSTYADSVKGRFTITRDNAKNTVYLQMNSLKPEDTAVYYCAVGPYRVAKYNYWGQGTQVTVSS	low polyreactivity
QVQLVESGGGLVQAGGSLRLSCAASGYISYYYAMGWYREAPGKEREFVAGISWSGGSTYYADPVKGRFTISRDNAKNTVYLQMNSLKPEDTAVYDCAARLSRWWPPTGVHYSDRYYGGQGTQVTVSS	high polyreactivity
QVQLVESGGGLVQAGGSLRLSCAASGYISYYYAMGWYRQAPGKEREFVAGISWSGGSTYYADPVKGRFTISRDNAKNTVYLQMNSLKTEDTAVYYCAARLSRWWPPTRVHYTDRYYWGQGTQVTVSS	high polyreactivity
QVQLVESGGGLVQAGGSLRLSCAASGYLIGGNAMGWYRQAPGKERELVAVISSRAGRTYYADSVKGRFTISRDNAKNTVYLQMNSLKPEDTAVYYCNRVFSYQYKRDYWGQGTQVTVSS	high polyreactivity
QVQLVESGGGLVQAGGSLRLSCAASGYMGWYRQAPGKERELVATISGSGGSTYYADSVKGRFTISRDNAKNTVYLQMNSLKPEDTAVYYCTTEIWGVNRSGYDYWGQGTQVTVSS	low polyreactivity
QVQLVESGGGLVQAGGSLRLSCAASGYNFDHYAMGWYRQAPGKERELVAAISRSAGSTYYADSVKGRFTISRDNAKNTVYLQMTSLKTEDTAVYYCNTVFRWIDRVLGYEYWGQGTQVTVSS	high polyreactivity
QVQLVESGGGLVQAGGSLRLSCAASGYNFYGYAMGWYRLAPGKERELVAAITVRGGSTYYADSVKGRFTISRDNAKNTVYLQMNCQKPEETAVYYCAAAPQFTFGVGYWGQGTQVTVSS	low polyreactivity
QVQLVESGGGLVQAGGSLRLSCAASGYSFSYYAMGWSRQAPGKERELVAAISWSGGSTYYADSVKGRFTISRDNAKNTVYLQMNRLKPEDTAVYYCATEVVAYRRYSAYGYWGQGTQVTVSS	high polyreactivity
QVQLVESGGGLVQAGGSLRLSCAASGYTDYAMGWYRQAPGKERELVATITSGDNTNYADSVKGRFTISRDNAKNTVDLQMNSLKPEDTAVYYCAAEYGMHYGIDYWGQGTQVTVSS	low polyreactivity
QVQLVESGGGLVQAGGSLRLSCAASGYTFAYYVMGWYRQAPGKERELVATIRSRAGRTYYADSVKERFTISRDNAKNTVYLQMNSLKPEDTAVYYCAAGWYYTYDYWGQGTQVTVSS	high polyreactivity
QVQLVESGGGLVQAGGSLRLSCAASGYTFAYYVMGWYRQAPGKERELVATIRSRAGRTYYADSVKGRFTISRDNAKNTVYLQLNSLKPEDTAVYYCAAGWYYTYDYWGQGTQVTVSS	high polyreactivity
QVQLVESGGGLVQAGGSLRLSCAASGYTFDKYAMGWYRPAPGKERELVAAITDGGSTNYADSVKGRFTISRDNAKNTVYLQMNSLKPEDTAVYYCNDELQWEVYYDRYPEYDHWGQGTQVTVSS	low polyreactivity
QVQLVESGGGLVQAGGSLRLSCAASGYTFDKYVMGWYRQAPGKERELVAAISRSGGRTYYADSVKGRFTISRDNAKNTVYLQMNSLKPEDTAVYYCNALWFYNGLSYEYWGQGTQVTVSS	high polyreactivity
